These results are taken from paper PMC8352940 (Nature Communications, 2021).

Assay [1] concerns the target SARS-CoV-2 RBD-Fc fusion protein (SARS-CoV-2, UniProt P0DTC2). Nature of the assay: ELISA. As to conditions: both partners purified. A general note: In an ELISA, binding on a coated surface is turned into a signal by an enzyme label.
For assay [2], the target named is SARS-CoV-2 RBD without the Fc fragment (SARS-CoV-2, UniProt P0DTC2). Nature of the assay: ELISA. The note with it: both partners purified.

Where a chain is given by its changes, count along the chain named.

B1: nCoVFab1 (Fab, V domains shown)
VH: QVQLVESGGGLVQPGGSLRLSCAASGFTVSSNYMSWVRQAPGKGLEWVSVIYSGGSTYYADSVKGRFTISRDNSKNTLYLQMNSLRAEDTAVYYCARGDGSDDYYYGMDVWGQGTTVTVSS
VL: QSVVTQPPSVSGAQGQRVFISCTGNGANIGMGYDVHWYQQLPGRAPKLLIFGNTNRPSGVPDRFSASRSGTSASLAITGLQTADEADYYCQSYDGNLRASVFGGGTKLTVL
notes: source: E. coli strain HB2151, purified (nickel-nitrilotriacetic acid resin)
Broadly, the EC50 is the midpoint of the concentration-response curve. A low value points to an effect from little substance. Molecule B1 showed an EC50 in assay [1] of roughly 16 nM.

B2: nCoVmab1 (antibody, V domains shown)
VH: B1 VH
VL: B1 VL
notes: also called nCoVFab1 in IgG1 format; source: 293F cells, purified (Protein A resin)
The molecule B2 came in with an EC50 in assay [2] of 0.56 nM.

B3: nCoVmab2 (antibody, V domains shown)
VH: B1 VH with Q1E, E6Q, L11V, G16R
VL: QAVLTQPSSVSGAPGQRVTISCTGSSSNVGAGYDVHWYQQLPGTAPKLLIYGNSNRPSGVPDRFSGSKSGTSASLAITGLQAEDEADYYCQSYDSSLSGSVFGGGTKLTVL
notes: also called nCoVFab2 in IgG1 format; source: 293F cells, purified (Protein A resin)
As to B3, in assay [2], a half-maximal response (EC50) required 0.84 nM.

B4: nCoVmab1_(gHmL) (antibody, V domains shown)
VH: B1 VH with Q1E, D102Y, D103Y
VL: B1 VL
With B4, the binding result in assay [2] is recorded as “no binding”.

B5: nCoVFab2 (Fab, V domains shown)
VH: B1 VH with Q1E, E6Q, L11V, G16R
VL: B3 VL
notes: as for B1
The molecule B5 yielded a concentration for a half-maximal effect (EC50) in assay [1] of roughly 63 nM.

B6: nCoVmab1gFR (antibody, V domains shown)
VH: B1 VH with Q1E
VL: B1 VL with Q14P, F19T, N25S, R44T, F51Y, A66G, R68K, T82A, A83E
For B6, the binding result in assay [2] is on record as “binds”.

B7: nCoVmab1_(gHgL) (antibody, V domains shown)
VH: B1 VH with Q1E, D102Y, D103Y
VL: B3 VL with A2S, L4V, S8P, V29I, S100W
As to B7, the binding result in assay [2] was “no binding”.
